System: coagulation in recalcified plasma
Assay: One stage clotting (coagulation) assay of specific functional activity of full-length TF mutants in CHO cell lysates
Format: biochemical
Conditions: for loss of function (reduction in specific functional activity as % of wild-type activity): full-length Ala mutant expressed in CHO cells, cell lysate, coagulant activity normalized to antigen, relative to wild-type TF; for reduction in tissue factor procoagulant cofactor activity when compared to wt-TF: residue substituted at the named position
Method: The full-length TF mutants prepared above were analyzed for function by coagulation assay. […] Coagulation factor deficient plasmas were purchased from George King Bio-medical. The chromogenic substrate, Spectrozyme FXa, was from American Diagnostica Inc. (Greenwich, Conn.).
An alternative approach was to use a polyvalent antibody purified by affinity for capturing TF followed by detection with the TF8-5G9 monoclonal antibody described above.
Initiation of coagulation by wild-type and mutant TF in recalcified plasma was determined after lysis of cell pellets from 2×10^6 cells/ml for each expressed full-length mutant with 15 mM octyl-glucopyranoside in HBS for 15 minutes at 37 C. followed by a 3-fold dilution.
All data represented are based on at least three independent determinations performed in duplicate.

Molecule | loss of function (reduction in specific functional activity as % of wild-type activity) | reduction in tissue factor procoagulant cofactor activity when compared to wt-TF [%]
Ser-16: full-length human tissue factor mutant, Ser-16 replaced by alanine (protein, UniProt P13726 1-295, looked up, variant S16A, full-length, full-length human tissue factor mutant, Ser-16 replaced by alanine) METPAWPRVPRPETAVARTLLLGWVFAQVAGASGTTNTVAAYNLTWKATNFKTILEWEPKPVNQVYTVQISTKSGDWKSKCFYTTDTECDLTDEIVKDVKQTYLARVFSYPAGNVESTGSAGEPLYENSPEFTPYLETNLGQPTIQSFEQVGTKVNVTVEDERTLVRRNNTFLSLRDVFGKDLIYTLYYWKSSSSGKKTAKTNTNEFLIDVDKGENYCFSVQAVIPSRTVNRKSTDSPVECMGQEKGEFREIFYIIGAVVFVVIILVIILAISLHKCRKAGVGQSWKENSPLNVS | more than 70% | ≥ 75
Thr-17: full-length human tissue factor mutant, Thr-17 replaced by alanine (protein, UniProt P13726 1-295, looked up, variant T17A, full-length, full-length human tissue factor mutant, Thr-17 replaced by alanine) METPAWPRVPRPETAVARTLLLGWVFAQVAGASGTTNTVAAYNLTWKSANFKTILEWEPKPVNQVYTVQISTKSGDWKSKCFYTTDTECDLTDEIVKDVKQTYLARVFSYPAGNVESTGSAGEPLYENSPEFTPYLETNLGQPTIQSFEQVGTKVNVTVEDERTLVRRNNTFLSLRDVFGKDLIYTLYYWKSSSSGKKTAKTNTNEFLIDVDKGENYCFSVQAVIPSRTVNRKSTDSPVECMGQEKGEFREIFYIIGAVVFVVIILVIILAISLHKCRKAGVGQSWKENSPLNVS | more than 70% | ≥ 75
Phe-19: full-length human tissue factor mutant, Phe-19 replaced by alanine (protein, UniProt P13726 1-295, looked up, variant F19A, full-length, full-length human tissue factor mutant, Phe-19 replaced by alanine) METPAWPRVPRPETAVARTLLLGWVFAQVAGASGTTNTVAAYNLTWKSTNAKTILEWEPKPVNQVYTVQISTKSGDWKSKCFYTTDTECDLTDEIVKDVKQTYLARVFSYPAGNVESTGSAGEPLYENSPEFTPYLETNLGQPTIQSFEQVGTKVNVTVEDERTLVRRNNTFLSLRDVFGKDLIYTLYYWKSSSSGKKTAKTNTNEFLIDVDKGENYCFSVQAVIPSRTVNRKSTDSPVECMGQEKGEFREIFYIIGAVVFVVIILVIILAISLHKCRKAGVGQSWKENSPLNVS | more than 70% | 
S39-T40-S42: human tissue factor triple mutant with alanine at positions 39, 40 and 42 (protein, UniProt P13726 33-295, looked up, variant S39A T40A S42A) Tissue factor: SGTTNTVAAYNLTWKSTNFKTILEWEPKPVNQVYTVQIAAKAGDWKSKCFYTTDTECDLTDEIVKDVKQTYLARVFSYPAGNVESTGSAGEPLYENSPEFTPYLETNLGQPTIQSFEQVGTKVNVTVEDERTLVRRNNTFLSLRDVFGKDLIYTLYYWKSSSSGKKTAKTNTNEFLIDVDKGENYCFSVQAVIPSRTVNRKSTDSPVECMGQEKGEFREIFYIIGAVVFVVIILVIILAISLHKCRKAGVGQSWKENSPLNVS | 43% | 
Phe-147: human tissue factor mutant, Phe-147 exchanged for alanine (protein, UniProt P13726 33-295, looked up, variant F147A) Tissue factor: SGTTNTVAAYNLTWKSTNFKTILEWEPKPVNQVYTVQISTKSGDWKSKCFYTTDTECDLTDEIVKDVKQTYLARVFSYPAGNVESTGSAGEPLYENSPEFTPYLETNLGQPTIQSFEQVGTKVNVTVEDERTLVRRNNTFLSLRDVAGKDLIYTLYYWKSSSSGKKTAKTNTNEFLIDVDKGENYCFSVQAVIPSRTVNRKSTDSPVECMGQEKGEFREIFYIIGAVVFVVIILVIILAISLHKCRKAGVGQSWKENSPLNVS | 30-50% | 
Arg-200/Lys-201: human tissue factor mutant, Arg-200 and Lys-201 replaced by alanine (protein, UniProt P13726 33-295, looked up, variant R200A K201A) Tissue factor: SGTTNTVAAYNLTWKSTNFKTILEWEPKPVNQVYTVQISTKSGDWKSKCFYTTDTECDLTDEIVKDVKQTYLARVFSYPAGNVESTGSAGEPLYENSPEFTPYLETNLGQPTIQSFEQVGTKVNVTVEDERTLVRRNNTFLSLRDVFGKDLIYTLYYWKSSSSGKKTAKTNTNEFLIDVDKGENYCFSVQAVIPSRTVNAASTDSPVECMGQEKGEFREIFYIIGAVVFVVIILVIILAISLHKCRKAGVGQSWKENSPLNVS | 30-80% | 
Asn-199: human tissue factor mutant, Asn-199 replaced by alanine (protein, UniProt P13726 33-295, looked up, variant N199A) Tissue factor: SGTTNTVAAYNLTWKSTNFKTILEWEPKPVNQVYTVQISTKSGDWKSKCFYTTDTECDLTDEIVKDVKQTYLARVFSYPAGNVESTGSAGEPLYENSPEFTPYLETNLGQPTIQSFEQVGTKVNVTVEDERTLVRRNNTFLSLRDVFGKDLIYTLYYWKSSSSGKKTAKTNTNEFLIDVDKGENYCFSVQAVIPSRTVARKSTDSPVECMGQEKGEFREIFYIIGAVVFVVIILVIILAISLHKCRKAGVGQSWKENSPLNVS | 30-80% | ≥ 75
Thr-106: human tissue factor mutant, Ala replacement for Thr-106 (protein, UniProt P13726 33-295, looked up, variant T106A) Tissue factor: SGTTNTVAAYNLTWKSTNFKTILEWEPKPVNQVYTVQISTKSGDWKSKCFYTTDTECDLTDEIVKDVKQTYLARVFSYPAGNVESTGSAGEPLYENSPEFTPYLEANLGQPTIQSFEQVGTKVNVTVEDERTLVRRNNTFLSLRDVFGKDLIYTLYYWKSSSSGKKTAKTNTNEFLIDVDKGENYCFSVQAVIPSRTVNRKSTDSPVECMGQEKGEFREIFYIIGAVVFVVIILVIILAISLHKCRKAGVGQSWKENSPLNVS | more than 50% | 
Asp-145: human tissue factor mutant, Asp-145 exchanged for alanine (protein, UniProt P13726 33-295, looked up, variant D145A) Tissue factor: SGTTNTVAAYNLTWKSTNFKTILEWEPKPVNQVYTVQISTKSGDWKSKCFYTTDTECDLTDEIVKDVKQTYLARVFSYPAGNVESTGSAGEPLYENSPEFTPYLETNLGQPTIQSFEQVGTKVNVTVEDERTLVRRNNTFLSLRAVFGKDLIYTLYYWKSSSSGKKTAKTNTNEFLIDVDKGENYCFSVQAVIPSRTVNRKSTDSPVECMGQEKGEFREIFYIIGAVVFVVIILVIILAISLHKCRKAGVGQSWKENSPLNVS | 30-50% | 
Val-198: human tissue factor mutant, Val-198 replaced by alanine (protein, UniProt P13726 33-295, looked up, variant V198A) Tissue factor: SGTTNTVAAYNLTWKSTNFKTILEWEPKPVNQVYTVQISTKSGDWKSKCFYTTDTECDLTDEIVKDVKQTYLARVFSYPAGNVESTGSAGEPLYENSPEFTPYLETNLGQPTIQSFEQVGTKVNVTVEDERTLVRRNNTFLSLRDVFGKDLIYTLYYWKSSSSGKKTAKTNTNEFLIDVDKGENYCFSVQAVIPSRTANRKSTDSPVECMGQEKGEFREIFYIIGAVVFVVIILVIILAISLHKCRKAGVGQSWKENSPLNVS | 30-80% | 
Val-146: human tissue factor mutant, Val-146 exchanged for alanine (protein, UniProt P13726 33-295, looked up, variant V146A) Tissue factor: SGTTNTVAAYNLTWKSTNFKTILEWEPKPVNQVYTVQISTKSGDWKSKCFYTTDTECDLTDEIVKDVKQTYLARVFSYPAGNVESTGSAGEPLYENSPEFTPYLETNLGQPTIQSFEQVGTKVNVTVEDERTLVRRNNTFLSLRDAFGKDLIYTLYYWKSSSSGKKTAKTNTNEFLIDVDKGENYCFSVQAVIPSRTVNRKSTDSPVECMGQEKGEFREIFYIIGAVVFVVIILVIILAISLHKCRKAGVGQSWKENSPLNVS | 30-50% | 
Val-67: human tissue factor mutant, Val-67 replaced by alanine (protein, UniProt P13726 33-295, looked up, variant V67A) Tissue factor: SGTTNTVAAYNLTWKSTNFKTILEWEPKPVNQVYTVQISTKSGDWKSKCFYTTDTECDLTDEIVKDAKQTYLARVFSYPAGNVESTGSAGEPLYENSPEFTPYLETNLGQPTIQSFEQVGTKVNVTVEDERTLVRRNNTFLSLRDVFGKDLIYTLYYWKSSSSGKKTAKTNTNEFLIDVDKGENYCFSVQAVIPSRTVNRKSTDSPVECMGQEKGEFREIFYIIGAVVFVVIILVIILAISLHKCRKAGVGQSWKENSPLNVS | 53% | 
Tyr-71: human tissue factor mutant, Tyr-71 replaced by alanine (protein, UniProt P13726 33-295, looked up, variant Y71A) Tissue factor: SGTTNTVAAYNLTWKSTNFKTILEWEPKPVNQVYTVQISTKSGDWKSKCFYTTDTECDLTDEIVKDVKQTALARVFSYPAGNVESTGSAGEPLYENSPEFTPYLETNLGQPTIQSFEQVGTKVNVTVEDERTLVRRNNTFLSLRDVFGKDLIYTLYYWKSSSSGKKTAKTNTNEFLIDVDKGENYCFSVQAVIPSRTVNRKSTDSPVECMGQEKGEFREIFYIIGAVVFVVIILVIILAISLHKCRKAGVGQSWKENSPLNVS | 98% | 
Glu-105: human tissue factor mutant, Ala replacement for Glu-105 (protein, UniProt P13726 33-295, looked up, variant E105A) Tissue factor: SGTTNTVAAYNLTWKSTNFKTILEWEPKPVNQVYTVQISTKSGDWKSKCFYTTDTECDLTDEIVKDVKQTYLARVFSYPAGNVESTGSAGEPLYENSPEFTPYLATNLGQPTIQSFEQVGTKVNVTVEDERTLVRRNNTFLSLRDVFGKDLIYTLYYWKSSSSGKKTAKTNTNEFLIDVDKGENYCFSVQAVIPSRTVNRKSTDSPVECMGQEKGEFREIFYIIGAVVFVVIILVIILAISLHKCRKAGVGQSWKENSPLNVS | more than 50% | 
